The target in experiment [1] is T1, ERα-Y537S/14-3-3ζ protein complex (human (from the printed UniProt entry) …, UniProt P03372 302-595; P63104 1-245, Y537S | F591R | P592R, phosphothreonine at T594). Nature of the experiment: FP; DMSO.
The target of experiment [2] is ERα-pT594-strep (ERαLBD-F-strep phosphorylated in vitro by PKA) (human (from the printed UniProt entry), UniProt P03372 302-595, S305A | F591R | P592R, phosphothreonine at T594). Nature of the experiment: FP; 100 uM E2.
In experiment [3] the target is T1, ERα-Y537S/14-3-3ζ protein complex. The experiment in a line: FP; 100 uM E2.
The target of experiment [4] is T2, ERαLBD-F-strep (PKA-responsive, non-phosphorylated) (human (from the printed UniProt entry), UniProt P03372 302-595, S305A | F591R | P592R).
T2 construct: also called ERα-strep; ERα(PKA)-strep; source: E. coli NiCo21 (DE3), purified (Ni-NTA, SUMO cleavage, Strep-Tactin, SEC); not shown: His tag, N-terminal, cleaved; SUMO, N-terminal, cleaved; strep-tag, C-terminal, kept
T2 sequence (looked up): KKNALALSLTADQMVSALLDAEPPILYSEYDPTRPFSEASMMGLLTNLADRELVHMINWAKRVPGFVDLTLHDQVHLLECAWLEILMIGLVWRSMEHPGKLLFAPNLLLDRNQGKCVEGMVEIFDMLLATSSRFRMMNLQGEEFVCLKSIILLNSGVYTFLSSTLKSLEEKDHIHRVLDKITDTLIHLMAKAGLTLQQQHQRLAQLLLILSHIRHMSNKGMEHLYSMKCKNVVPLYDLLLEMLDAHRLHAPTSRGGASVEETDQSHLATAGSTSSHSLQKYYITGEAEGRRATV
The experiment in a line: fluorescence polarisation; as a10 but in the presence of 100 μM E2; apparent KD. Particulars: both partners purified.

The target in experiment [5] is T3, ERα-pT594-strep (ERαLBD-F-strep phosphorylated in vitro by PKA) (human (from the printed UniProt entry), UniProt P03372 302-595, S305A | F591R | P592R, phosphothreonine at T594).
T3 construct: also called ERα(PKA)-pT594-strep; phosphorylated ERα; source: E. coli NiCo21 (DE3), phosphorylated in vitro with His-PKA-strep and ATP, purified (Ni-NTA, Strep-Tactin, SEC); not shown: His tag, N-terminal, cleaved; SUMO, N-terminal, cleaved; strep-tag, C-terminal, kept
T3 sequence (looked up): T2 sequence (looked up)
The experiment is described as above. To be noted: both partners purified.

Experiment [6] addresses T4, ERα-Y537S LBD-F-strep (PKA-responsive), without 14-3-3ζ (human (from the printed UniProt entry), UniProt P03372 302-595, S305A | Y537S | F591R | P592R).
T4 construct: the methods list ERα(PKA)-strep and ERα(PKA)-pT594-strep 'for WT ERα and Y537S mutant'; also called apo ERα-Y537S
T4 sequence (looked up): T2 sequence (looked up) with Y236S
Described as above. Particulars: both partners purified.

In experiment [7] the target is T2, ERαLBD-F-strep (PKA-responsive, …). The experiment in a line: fluorescence polarisation; fluorescence anisotropy; ERα or complex titrated (2-fold series from 40 μM ERα) to 20 nM fluorescein-labeled SRC1 peptide; DMSO control; 20 mM HEPES pH 7.5, 150 mM NaCl, 10 mM MgCl2, 0.1% Tween20, 0.1% BSA; room temperature; apparent KD (4PL fit). To be noted: both partners purified. (In general: Polarisation of emitted light reports the rotation of a fluorescent probe.)

The target of experiment [8] is T3, ERα-pT594-strep (ERαLBD-F-strep …). The description is as above. Particulars: both partners purified.
Experiment [9] addresses T4, ERα-Y537S LBD-F-strep (PKA-responsive), …. The experiment is described as above. Particulars: both partners purified.

Positions count from the first letter of the chain named. Where no end group is shown, it is not given here.

T1 sequence (P63104 whole entry, stated change not applied, one chain of several): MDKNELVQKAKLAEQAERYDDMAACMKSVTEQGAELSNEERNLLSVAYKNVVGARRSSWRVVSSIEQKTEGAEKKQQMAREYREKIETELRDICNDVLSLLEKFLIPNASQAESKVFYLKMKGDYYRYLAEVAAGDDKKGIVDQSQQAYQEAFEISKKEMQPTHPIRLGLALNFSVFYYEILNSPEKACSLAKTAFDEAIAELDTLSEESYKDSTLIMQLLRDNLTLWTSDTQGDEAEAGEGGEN

With LTERHKILHRLLQEGSPSD (also: fluorescein (FITC) label, position not given here) [fluorescein-labeled SRC-1 cofactor peptide (LXXLL motif of SRC-1/NCoA-1)], the Kd was 700 nM in experiment [1]; 900 nM in [2]; 400 nM in experiment [3]; 1000 nM in experiment [4]; 1000 nM in [5]; 800 nM in experiment [6]. Further, the results for the Kd in experiment [7], in experiment [8] and in experiment [9] were about 20000 nM, about 20000 nM and 1700 nM, respectively.

These data come from paper PMC10302166, “Molecular basis and dual ligand regulation of tetrameric estrogen receptor α/14-3-3ζ protein complex” (The Journal of Biological Chemistry, 2023).
